{
  "source": "paper PMC2837123",
  "target": "full-length wild type prototype foamy virus (PFV) integrase (prototype foamy virus (PFV))",
  "test": "crystal structure",
  "data": [
    {"substance": "full-length wild type prototype foamy virus (PFV) integrase (enzyme)", "values": [
      {"measurement": "stoichiometry N", "value": 4}
    ]}
  ]
}
